Measurements reported in patent publication US20110123544A1 (published 2011).
Substitutions are numbered along the chain they refer to. Numbers in names are those of the source. Like-named read-outs stand apart in the source and are kept apart here.

What was measured:
[1] = target: recombinant rhesus IL-12 (rhesus monkey) (UniProt P48091); test: cell-based or functional assay
[2] = target: recombinant human IL-12 (rhIL-12) (human) (UniProt P29459); test: cell-based or functional assay
Baboon IL-12 (PBMC sup) = target: T1, Baboon IL-12 (PBMC sup) (baboon); test: cell-based or functional assay
T1 chain 1: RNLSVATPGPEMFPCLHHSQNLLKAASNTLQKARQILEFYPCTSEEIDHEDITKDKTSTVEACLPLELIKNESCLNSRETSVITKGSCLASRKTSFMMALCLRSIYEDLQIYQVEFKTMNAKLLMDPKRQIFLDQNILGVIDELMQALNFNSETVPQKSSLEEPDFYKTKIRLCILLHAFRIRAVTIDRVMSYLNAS
T1 chain 2: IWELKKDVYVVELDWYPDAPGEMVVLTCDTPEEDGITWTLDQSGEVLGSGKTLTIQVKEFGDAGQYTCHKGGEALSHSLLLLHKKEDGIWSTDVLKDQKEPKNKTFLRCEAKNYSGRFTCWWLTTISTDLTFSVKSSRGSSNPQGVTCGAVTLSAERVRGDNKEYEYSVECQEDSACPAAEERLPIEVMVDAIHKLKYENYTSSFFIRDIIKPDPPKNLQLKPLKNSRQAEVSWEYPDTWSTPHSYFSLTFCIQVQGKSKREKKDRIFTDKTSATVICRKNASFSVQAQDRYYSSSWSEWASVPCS

Cyno IL-12 (PBMC sup) = target: T2, Cyno IL-12 (PBMC sup) (cynomolgus monkey); test: cell-based or functional assay
T2 chain 1: T1 chain 1 with V82F, K85N, Q110K, I111M, M125R, R172K
T2 chain 2: T1 chain 2 with A230V

[3] = target: recombinant murine IL-12 (mouse) (UniProt P43431); test: Biomolecular Interaction Assay; C17.15 captured on goat anti-rat IgG, soluble recombinant murine IL-12
[4] = target: recombinant murine IL-12 (mouse) (UniProt P43431); test: cell-based or functional assay
[5] = target: recombinant murine IL-12 (mouse) (UniProt P43431); test: Receptor Binding Assay: inhibition of 125I-murine IL-12 binding to receptors on 2D6 cells
[6] = target: T3, recombinant human interleukin 12 (p40/p35 heterodimer) (human, UniProt P29460 23-328; P29459 23-219); test: BIAcore; unmutated
T3 chain 1: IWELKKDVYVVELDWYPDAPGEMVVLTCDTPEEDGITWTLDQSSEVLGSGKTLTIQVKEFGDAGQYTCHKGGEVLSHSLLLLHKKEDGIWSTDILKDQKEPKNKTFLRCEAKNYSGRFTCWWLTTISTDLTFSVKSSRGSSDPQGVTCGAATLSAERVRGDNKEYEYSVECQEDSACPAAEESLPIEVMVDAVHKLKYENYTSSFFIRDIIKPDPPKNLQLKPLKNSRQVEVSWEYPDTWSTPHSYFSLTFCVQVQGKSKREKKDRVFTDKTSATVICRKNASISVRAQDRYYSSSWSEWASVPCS
T3 chain 2: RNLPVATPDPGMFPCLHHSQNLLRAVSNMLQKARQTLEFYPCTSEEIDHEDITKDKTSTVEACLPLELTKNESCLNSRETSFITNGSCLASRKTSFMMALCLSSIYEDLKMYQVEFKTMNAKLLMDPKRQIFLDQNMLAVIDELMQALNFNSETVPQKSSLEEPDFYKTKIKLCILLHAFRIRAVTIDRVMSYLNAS

[7] = target: T4, human IL-12 (recombinant human IL-12, p70 heterodimer of p35 and p40) (human, UniProt P29459 23-219; P29460 23-328); test: cell-based or functional assay
T4 sequence (looked up) 1: T3 chain 2
T4 sequence (looked up) 2: T3 chain 1

[8] = target: T3, recombinant human interleukin 12 …; test: BIAcore; unmutated
[9] = target: T5, recombinant human IL-12 (rhIL-12) (human, UniProt P29459 23-219; P29460 23-328); test: BIAcore (SPR) off-rate on IL-12 chip
T5 construct: disulfide-linked p35/p40 heterodimer (p70); also called rec. human IL12; IL-12 p70
T5 sequence (looked up) 1: T3 chain 2
T5 sequence (looked up) 2: T3 chain 1

[10] = target: T5, recombinant human IL-12 (rhIL-12); test: RB assay: inhibition of 125I-hIL-12 binding to IL-12 receptors on PHA blasts
[11] = target: T5, recombinant human IL-12 (rhIL-12); test: cell-based or functional assay
[12] = target: T5, recombinant human IL-12 (rhIL-12); test: cell-based or functional assay; remark: listed apart in the source
[13] = target: human IL-12 (recombinant human IL-12, p70 heterodimer of p35 and p40) (human) (UniProt P29459); test: BIAcore SPR, IL-12 chip
[14] = target: human IL-12 (recombinant human IL-12, p70 heterodimer of p35 and p40) (human) (UniProt P29459); test: cell-based or functional assay
[15] = target: human IL-12 (recombinant human IL-12, p70 heterodimer of p35 and p40) (human) (UniProt P29459); test: RB assay: 125I-hIL-12 binding to PHA blasts
[16] = target: T3, recombinant human interleukin 12 …; test: BIAcore; unmutated

Chain of recombinant murine IL-12 (mouse) (P43431 23-215, chain 1 of 2): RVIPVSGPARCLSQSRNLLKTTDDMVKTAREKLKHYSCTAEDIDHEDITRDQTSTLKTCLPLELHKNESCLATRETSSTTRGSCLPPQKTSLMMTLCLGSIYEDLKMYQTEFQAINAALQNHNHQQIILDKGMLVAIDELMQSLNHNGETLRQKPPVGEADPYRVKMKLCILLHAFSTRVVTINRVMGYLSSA
Chain of recombinant murine IL-12 (mouse) (P43432 23-335, chain 2 of 2, further chain): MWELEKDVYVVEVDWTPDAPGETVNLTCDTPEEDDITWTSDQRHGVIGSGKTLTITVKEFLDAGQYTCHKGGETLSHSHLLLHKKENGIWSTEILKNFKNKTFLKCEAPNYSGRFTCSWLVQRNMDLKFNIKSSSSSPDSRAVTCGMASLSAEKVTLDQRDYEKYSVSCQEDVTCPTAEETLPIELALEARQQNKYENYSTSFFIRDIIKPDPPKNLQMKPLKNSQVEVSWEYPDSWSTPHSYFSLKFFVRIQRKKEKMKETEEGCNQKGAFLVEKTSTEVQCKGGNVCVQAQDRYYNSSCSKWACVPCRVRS

## C8.6.2, mouse anti-human IL-12 monoclonal antibody
[1]
  IC50 (M), Rhesus IL-12 Purified: 1e-10 M
[2]
  IC50 (M), Human IL-12 Purified: 5e-11 M
Baboon IL-12 (PBMC sup)
  IC50 (M), Baboon IL-12 PBMC sup: 2e-10 M
Cyno IL-12 (PBMC sup)
  IC50 (M), Cyno IL-12 PBMC sup: 1.2e-10 M

## C17.15, rat anti-murine IL-12 monoclonal antibody
[3]
  Kd: 0.48 nM
  koff: 0.000184 s⁻¹
  kon: 380000 M⁻¹ s⁻¹
[4]
  IC50 (M), Mouse IL-12 Purified: 3e-11 M
  PHA blast Assay IC50: 0.014 nM
[5]
  IC50: 0.15 nM

B1: Y61 H30 S (peptide)
chain: FTFSSYGMH
[6]
  koff: 0.000168 s⁻¹

B2: 70-1 IgG1 (antibody, V domains shown)
VH: HGSHDN
VL: QSYDSSLRGSRV
[7]
  PHA assay IC50: 200 nM

B3: Y61 H52 R (peptide)
chain: FIRYDGSNKYYADSVKG
[8]
  koff: 0.000206 s⁻¹

B4: Y61 IgG (antibody, V domains shown)
VH: QVQLVQSGGGVVQPGRSLRLSCAASGFTFSSYGMHWVRQAPGKGLEWVAFIRYDGSNKYYADSVKGRFTISRDNSKNTLYLQMKSLRAEDTAVYYCKTHGSHDNWGQGTMVTVSS
VL: SYVLTQPPSVSGTPGQRVTISCSGGRSWIGSNTVKWYQQLPGTAPKLLIYGNDQRPSGVPDRFSGSKSGTSASLAITGVQAEDEADYYCQSYDRGTHPALLFGTGTKVTVLG
[1]
  IC50 (M), Rhesus IL-12 Purified: 1e-10 M
Cyno IL-12 (PBMC sup)
  IC50 (M), Cyno IL-12 PBMC sup: 2.2e-10 M

B5: Y19 (scFv, V domains shown)
VH: B4 VH
VL: B4 VL with W28N, T96H, L100M, L101S
[9]
  koff: 0.000226 s⁻¹
[10]
  IC50: 0.03 nM
[11]
  PHA assay IC50: > 10 nM

B6: Y61-L50Y-H31E-L94Y IgG (antibody, V domains shown)
VH: B4 VH with S31E
VL: B4 VL with W28N, G51Y, G95Y
[9]
  koff: 4.64e-05 s⁻¹
[11]
  IFN gamma IC50: 0.01 nM
  PHA assay IC50: 0.01 nM

B7: 149-6 (scFv, V domains shown)
VH: B4 VH with K97T
VL: B4 VL with W28N, G30V, T96F, H97T, P98G, A99S, L100R, L101V
[12]
  PHA assay IC50 (M) p70:p40 1:0: 9e-10 M
  PHA assay IC50 (M) p70:p40 1:20: 1e-09 M
  PHA assay IC50 (M) p70:p40 1:50: 1e-09 M

B8: Y55 (scFv, V domains shown)
VH: B4 VH
VL: B4 VL with W28N, P98F, A99Q, L100M, L101Y
[9]
  koff: 0.00106 s⁻¹
[10]
  IC50: 0.14 nM
[11]
  PHA assay IC50: > 10 nM

B9: Y61-L50Y-H31E IgG (antibody, V domains shown)
VH: B4 VH with S31E
VL: B4 VL with G51Y
[9]
  koff: 2.99e-05 s⁻¹
[11]
  IFN gamma IC50: 0.02 nM
  PHA assay IC50: 0.06 nM

B10: Y61 (scFv, V domains shown)
VH: B4 VH
VL: B4 VL
notes: scFv; also called Y61 scFv
[9]
  koff: 0.000275 s⁻¹
[10]
  IC50: 0.04 nM
[11]
  PHA assay IC50: 0.14 nM

B11: D9 (scFv, V domains shown)
VH: B4 VH
VL: B4 VL with W28N, T96R, H97L, L100Q, L101T
[9]
  koff: 0.000821 s⁻¹
[10]
  IC50: 3.5 nM

B12: 149-7 (scFv, V domains shown)
VH: B4 VH with K97T
VL: SYVLTQPPSVSGTPGQRVTISCSGGRSNIGSNTVKWYQQLPGTAPKLLIYGNDQRPSGVPDRFSGSKSGTSASLAITGVQAEDEADYYCQSYDRDFTGSRVFGTGTKVTVL
[13]
  koff: 0.00113 s⁻¹
[14]
  PHA assay IC50: 3 nM
[15]
  IC50: 0.9 nM
[12]
  PHA assay IC50 (M) p70:p40 1:0: 3.5e-09 M
  PHA assay IC50 (M) p70:p40 1:20: 2.5e-09 M
  PHA assay IC50 (M) p70:p40 1:50: 4e-09 M

B13: J695 (Y61-L94Y-L50Y IgG) (antibody, V domains shown)
VH: B4 VH with Q6E, K84N
VL: B4 VL with S1Q, Y2S, T13A, G25S, W28N, G51Y, V79L, G95Y
Baboon IL-12 (PBMC sup)
  IC50 (M), Baboon IL-12 PBMC sup: 1.5e-11 M
Cyno IL-12 (PBMC sup)
  IC50 (M), Cyno IL-12 PBMC sup: 1e-11 M

B14: Y61 H56 N (peptide)
chain: FIRYDGSNKYYADSVKG
[16]
  koff: 0.000385 s⁻¹

B15: Y61 H58 Y (peptide)
chain: FIRYDGSNKYYADSVKG
[16]
  koff: 0.00031 s⁻¹

B16: Y61 H53 D (peptide)
chain: FIRYDGSNKYYADSVKG
[8]
  koff: 0.000151 s⁻¹

B17: Y61 H50 F (peptide)
chain: FIRYDGSNKYYADSVKG
[8]
  koff: 0.000204 s⁻¹

B18: Y61 H33 G (peptide)
chain: FTFSSYGMH
[6]
  koff: 0.000178 s⁻¹

B19: Y61 H54 G (peptide)
chain: FIRYDGSNKYYADSVKG
[8]
  koff: 0.000178 s⁻¹

B20: Y61 H32 Y (peptide)
chain: FTFSSYGMH
[6]
  koff: 0.000337 s⁻¹

B21: Y61 H31 S (peptide)
chain: FTFSSYGMH
[6]
  koff: 0.000249 s⁻¹
